Assay results published in patent publication US20260152557A1 (Adimab, published 2026).
Residue numbers refer to the chain shown, from its start. One block for each binder: values may come before it.

How the values were obtained:
[1] = target: T1, cynomolgus CD3 on HSC-F cells (cynomolgus, UniProt Q95LI5 22-198); assay: flow cytometry, yeast-produced IgG 100 nM on HSC-F cells, pH 6.0
T1 construct: whole, on cells; also called Cyno HSC-F; cynomolgus HSC-F cells
Method: (§1) Anti-CD3 antibodies Antibody Nos. 1-13 were produced as aglycosylated IgGs comprising a IgG1 Fc region in yeast cells. Binding to human or cynomolgus CD3-expressing cells (human CD3+ Jurkat cells or cynomolgus HSC-F cells, respectively) at pH 7.4 and pH 6.0 were measured by fluorescence-activated single cell sorting (FACS). Normalized cell binding (NCB) values were calculated based on median fluorescence intensity (MFI) values, CD3 negative Jurkat cells were used as a negative control.
(§2) Cell binding assay, CD3+ and CD3− human Jurkat cells (ATCC) and cynomolgus HSC-F cells (NIH) were thawed and washed with cold PBSF buffer, pH 7.4 (PBS+0.1% BSA, pH 7.4). About 200,000 cells were aliquoted per well of a 96-well plate (FACS Assay Plate VWR BD 353263) and pelleted by centrifugation (5 minutes at 500×g). The cells were washed with either PBSF pH 7.4 or PBSF pH 6.0 (PBS+0.1% BSA, pH 6.0), and then resuspended in 100 μl in either PBSF pH 7.4 or PBSF pH 6.0 with IgG antibody (100 nM) produced in yeast as described above. The mixture (cells+antibody) was incubated for 20 minutes on ice, then washed twice with either PBSF pH 7.4 or PBSF pH 6.0. Cells were resuspended in 50 μl of propidium iodide (Roche; 1:500 dilution) and anti-human IgG-RPE (Southern Biotech; 1:100 dilution) prepared in either PBSF pH 7.4 or PBSF pH 6.0, then incubated for 20 minutes on ice in the dark before cells were washed twice with either PBSF pH 7.4 or PBSF pH 6.0. Binding was analyzed on FACS Canto 11.

[2] = target: T1, cynomolgus CD3 on HSC-F cells; assay: flow cytometry, yeast-produced IgG 100 nM on HSC-F cells, pH 7.4
Method: as §1, §2

[3] = target: T2, human CD3 on CD3+ Jurkat cells (human, UniProt P07766 23-207); assay: flow cytometry, yeast-produced IgG 100 nM on CD3+ Jurkat cells, pH 6.0
T2 construct: whole, on cells; The whole CD3 complex stands on the cells; also called Human CD3 Jurkat; human CD3+ Jurkat cells
Method: as §1, §2

[4] = target: T2, human CD3 on CD3+ Jurkat cells; assay: flow cytometry, yeast-produced IgG 100 nM on CD3+ Jurkat cells, pH 7.4
Method: as §1, §2

[5] = target: T3, cynomolgus CD3εδ-Fc heterodimer (Cy CD3ε Fc / CD3δ Fc-HIS) (cynomolgus, UniProt Q95LI8 22-100); assay: BLI (Octet), CHO-produced IgG on AHC sensor, CD3εδ-Fc 100 nM in solution, pH 6.0
T3 construct: range 22-100; Produced in HEK 293 cells; also called Cy CD3εδ Fc heterodimer; not shown: Fc-HIS part of CD3δ Fc-HIS
Method: (§3) Anti-CD3 antibodies Antibody Nos. 1-13 were produced as human IgG1 antibodies in yeast or CHO cells. IgGs produced in yeast were aglycosylated, CHO) produced IgGs had standard CH2 glycosylation. Binding affinity to human or cynomolgus CD3εδ-Fc at pH 7.4 and pH 6.0 was measured via biolayer interferometry (BLI) using the ForteBio OCTET® HTX system and analyzed using the ForteBio software.
(§4) Kinetics were analyzed using the 1:1 binding model.

[6] = target: T4, human CD3εδ-Fc heterodimer (Hu CD3ε Fc / CD3δ Fc-HIS) (human, UniProt P04234 22-100); assay: BLI (Octet), yeast-produced IgG on AHC sensor, CD3εδ-Fc 100 nM in solution, pH 6.0
T4 construct: range 22-100; Produced in HEK 293 cells with a heterologous signal peptide; heterodimer purified by Ni Sepharose and Mono Q; also called Hu CD3εδ Fc heterodimer; CD3εδ Fc-HIS heterodimer; not shown: Fc-HIS part of CD3δ Fc-HIS
Method: as §3, §4

[7] = target: T4, human CD3εδ-Fc heterodimer (Hu CD3ε Fc …); assay: SPR (Biacore 8K), yeast-produced Fab, monovalent, pH 6.0
Method: (§5) Anti-CD3 antibodies (Antibody Nos. 1-13) were produced as human IgG1 antibodies in yeast or Chinese hamster ovary (CHO) cells, and Fab fragments were generated from the IgG1 antibodies by papain digestion and purified IgGs produced in yeast were aglycosylated. CHO produced IgGs had standard CH2 glycosylation. […] Monovalent binding affinity to human or cynomolgus CD3εδ-Fc at pH 7.4 and pH 6.0 were measured via surface plasmon resonance (SPR) using the BIACORE® 8K (Cytiva, previously GE Healthcare Life Sciences) system and analyzed using BIACORE® Evaluation Software.
(§6) BIACORE® KD measurements (surface plasmon resonance; SPR). BIACORE® affinity measurements were performed generally as previously described. Briefly, human CD3εδ-Fc heterodimer produced as described above was immobilized to a NiNTA sensor chip in a BIACORE® 8K (Cytiva, previously GE Healthcare Life Sciences) to a response level of ˜500 RUs. […] The sensor chip was doubly regenerated between cycles using 0.35 M EDTA and 0.1 M NaOH. The resulting data were double reference subtracted and fit to a 1:1 binding model using BIACORE® Evaluation Software.

[8] = target: T4, human CD3εδ-Fc heterodimer (Hu CD3ε Fc …); assay: SPR (Biacore 8K), yeast-produced Fab, monovalent, pH 7.4
Method: as §5, §6

[9] = target: T3, cynomolgus CD3εδ-Fc heterodimer (Cy …); assay: BLI (Octet), yeast-produced IgG on AHC sensor, CD3εδ-Fc 100 nM in solution, pH 6.0
Method: as §3, §4

[10] = target: T3, cynomolgus CD3εδ-Fc heterodimer (Cy …); assay: BLI (Octet), yeast-produced IgG on AHC sensor, CD3εδ-Fc 100 nM in solution, pH 7.4
Method: as §3, §4

[11] = target: T4, human CD3εδ-Fc heterodimer (Hu CD3ε Fc …); assay: SPR (Biacore 8K), CHO-produced Fab, monovalent, pH 6.0
Method: as §5, §6

[12] = target: T3, cynomolgus CD3εδ-Fc heterodimer (Cy …); assay: as above
Method: as §5, §6

[13] = target: T4, human CD3εδ-Fc heterodimer (Hu CD3ε Fc …); assay: BLI (Octet), CD3εδ-Fc on AHC sensor, CHO-derived Fab 100 nM in solution, pH 6.0
[14] = target: T4, human CD3εδ-Fc heterodimer (Hu CD3ε Fc …); assay: BLI (Octet), yeast-produced IgG on AHC sensor, CD3εδ-Fc 100 nM in solution, pH 7.4
Method: as §3, §4

T2 sequence (P07766 23-207): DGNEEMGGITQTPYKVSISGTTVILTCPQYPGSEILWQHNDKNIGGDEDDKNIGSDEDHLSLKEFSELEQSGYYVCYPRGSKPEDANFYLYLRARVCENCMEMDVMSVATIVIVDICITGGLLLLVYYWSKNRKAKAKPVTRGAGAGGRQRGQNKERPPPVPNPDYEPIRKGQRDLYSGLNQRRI
T4 sequence (chain, as listed by the source mutant, form in doubt, chain 1 of 2): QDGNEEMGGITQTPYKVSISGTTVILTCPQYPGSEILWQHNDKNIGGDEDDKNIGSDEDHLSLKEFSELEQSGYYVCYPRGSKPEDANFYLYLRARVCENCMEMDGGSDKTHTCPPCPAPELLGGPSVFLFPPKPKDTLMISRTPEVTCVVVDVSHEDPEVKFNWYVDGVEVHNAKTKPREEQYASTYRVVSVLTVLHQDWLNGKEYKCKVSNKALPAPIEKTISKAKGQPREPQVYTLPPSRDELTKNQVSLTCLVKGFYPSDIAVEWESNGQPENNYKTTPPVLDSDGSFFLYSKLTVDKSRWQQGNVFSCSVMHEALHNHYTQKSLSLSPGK
T4 sequence (P04234 22-100, stated change not applied, form in doubt, chain 2 of 2): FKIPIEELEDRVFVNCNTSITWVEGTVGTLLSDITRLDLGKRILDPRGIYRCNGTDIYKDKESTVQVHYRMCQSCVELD
T1 sequence (Q95LI5 22-198): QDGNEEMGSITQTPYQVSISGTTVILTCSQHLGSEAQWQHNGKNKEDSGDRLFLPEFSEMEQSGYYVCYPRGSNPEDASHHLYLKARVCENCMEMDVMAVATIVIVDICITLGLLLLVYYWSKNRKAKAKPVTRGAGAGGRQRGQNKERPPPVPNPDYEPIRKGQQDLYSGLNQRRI
T3 sequence (chain, as listed by the source mutant, form in doubt, chain 1 of 2): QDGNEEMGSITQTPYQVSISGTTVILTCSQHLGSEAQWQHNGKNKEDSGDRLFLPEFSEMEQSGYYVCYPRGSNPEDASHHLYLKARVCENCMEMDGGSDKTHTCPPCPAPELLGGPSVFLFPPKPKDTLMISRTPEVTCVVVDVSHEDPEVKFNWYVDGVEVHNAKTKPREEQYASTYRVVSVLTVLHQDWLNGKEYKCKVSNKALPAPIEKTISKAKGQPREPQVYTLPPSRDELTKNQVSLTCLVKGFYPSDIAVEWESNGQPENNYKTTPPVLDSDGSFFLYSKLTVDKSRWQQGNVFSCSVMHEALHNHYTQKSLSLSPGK
T3 sequence (Q95LI8 22-100, stated change not applied, form in doubt, chain 2 of 2): as the sequence (P04234 22-100, stated change not applied, form in doubt, chain 2 of 2) above, with I5V, N15K, I20V, S32T, D33N, I34N, T64A, S74N counted along it

B1: ADI-48587 (Antibody No. 2), human IgG1 (antibody, V domains shown)
VH: QVQLVQSGAEVKKPGASVKVSCKASGFNIKDYYMHWVRQAPGQRLEWMGWIDLENANTIYDAKFQGRVTITRDTSASTAYMELSSLRSEDTAVYYCARDHYHRYFYDVWGQGTLVTVSS
VL: DIVMTQSPDSLAVSLGERATINCKSSQSLLNARTGHNYLAWYQQKPGQPPKLLIYWASTRESGVPDRFSGSGSGTDFTLTISSLQAEDVAVYYCKQSHSHRTFGGGTKVEIK
notes: Tested as human IgG1 (yeast-produced aglycosylated, or CHO-produced); also called Ab No. 2; parent pH-dependent antibody
NCB [1]: 437 | NCB [2]: 0 | NCB [3]: 149 | NCB [4]: 0 | Kd [5]: 451 nM | Kd [6]: 9.33 nM

B3: ADI-79847 (Antibody No. 13), human IgG1 (antibody, V domains shown)
VH: B1 VH
VL: B1 VL with H100R
notes: Tested as yeast-produced aglycosylated human IgG1
NCB [1]: 2 | NCB [2]: 0 | NCB [3]: 0 | NCB [4]: 0

B4: ADI-74966 (Antibody No. 4), human IgG1 (antibody, V domains shown)
VH: B1 VH
VL: B1 VL with H98Y
notes: Tested as human IgG1 (yeast-produced aglycosylated, or CHO-produced)
NCB [1]: 378 | NCB [2]: 0 | NCB [3]: 131 | NCB [4]: 0 | Kd [5]: 209 nM | Kd [6]: 6.95 nM | Kd [9]: 9.71 nM | Kd [10]: 47.6 nM

B6: ADI-79848 (Antibody No. 9), human IgG1 (antibody, V domains shown)
VH: B1 VH with H100A, H102G
VL: B1 VL with H98Y, H100R
notes: as for B3
NCB [1]: 550 | NCB [2]: 173 | NCB [3]: 200 | NCB [4]: 136 | Kd [6]: 6.47 nM | Kd [9]: 6.28 nM | Kd [14]: 11.6 nM | Kd [10]: 14.5 nM

B9: ADI-79843 (Antibody No. 8), human IgG1 (antibody, V domains shown)
VH: B1 VH with H100A
VL: B1 VL with H36K, H98Y, H100R
notes: as for B3
NCB [1]: 603 | NCB [2]: 174 | NCB [3]: 207 | NCB [4]: 149 | Kd [6]: 1.6 nM | Kd [9]: 1.76 nM | Kd [14]: 6.64 nM | Kd [10]: 5.66 nM

B12: ADI-79845 (Antibody No. 11), human IgG1 (antibody, V domains shown)
VH: B1 VH with H100A, H102G
VL: B1 VL with H36K, H98Y
notes: as for B3
NCB [1]: 581 | NCB [2]: 167 | NCB [3]: 200 | NCB [4]: 149 | Kd [6]: 1.04 nM | Kd [14]: 9.87 nM | Kd [10]: 8.06 nM

B13: ADI-79846 (Antibody No. 12), human IgG1 (antibody, V domains shown)
VH: B1 VH with E82G, H102G
VL: B1 VL
notes: as for B3
NCB [1]: 235 | NCB [2]: 2 | NCB [3]: 65 | NCB [4]: 4 | Kd [6]: 8.09 nM | Kd [9]: 11.8 nM

B14: ADI-79844 (Antibody No. 10), human IgG1 (antibody, V domains shown)
VH: B1 VH with H100A, H102G
VL: B1 VL with H36K, H100R
notes: as for B3
NCB [1]: 603 | NCB [2]: 160 | NCB [3]: 196 | NCB [4]: 147 | Kd [6]: 3.6 nM | Kd [9]: 2.94 nM | Kd [14]: 6.51 nM | Kd [10]: 5.42 nM

B15: ADI-79842 (Antibody No. 7), human IgG1 (antibody, V domains shown)
VH: B1 VH with H102G
VL: B1 VL with H36K, H98Y, H100R
notes: as for B3
NCB [1]: 575 | NCB [2]: 172 | NCB [3]: 208 | NCB [4]: 139 | Kd [6]: 6.52 nM | Kd [9]: 6.88 nM | Kd [14]: 16.1 nM | Kd [10]: 17.9 nM

Second part, the binder after the results:

Kd [7]: 5.76 nM | Kd [8]: 33.4 nM
B2: Fab of ADI-79848 (Antibody No. 9) (Fab, V domains shown)
VH: B1 VH with H100A, H102G
VL: B1 VL with H98Y, H100R
notes: Fab made by papain digestion of the yeast-produced human IgG1; also called Antibody No. 9 Fab; ADI-79848 Fab

Kd [11]: 19.5 nM | Kd [12]: 26.1 nM | Kd [7]: 16.3 nM | Kd [13]: 36.7 nM
B5: Fab of ADI-74966 (Antibody No. 4) (Fab, V domains shown)
VH: B1 VH
VL: B1 VL with H98Y
notes: Fab made by papain digestion of the human IgG1 (yeast- or CHO-produced); also called Antibody No. 4 Fab; ADI-74966 Fab

Kd [7]: 2.34 nM | Kd [8]: 3.45 nM
B7: Fab of ADI-79844 (Antibody No. 10) (Fab, V domains shown)
VH: B1 VH with H100A, H102G
VL: B1 VL with H36K, H100R
notes: Fab made by papain digestion of the yeast-produced human IgG1; also called Antibody No. 10 Fab; ADI-79844 Fab

Kd [7]: 0.796 nM | Kd [8]: 5.9 nM
B8: Fab of ADI-79843 (Antibody No. 8) (Fab, V domains shown)
VH: B1 VH with H100A
VL: B1 VL with H36K, H98Y, H100R
notes: Fab made by papain digestion of the yeast-produced human IgG1; also called Antibody No. 8 Fab; ADI-79843 Fab

Kd [7]: 6.16 nM | Kd [8]: 32.6 nM
B10: Fab of ADI-79842 (Antibody No. 7) (Fab, V domains shown)
VH: B1 VH with H102G
VL: B1 VL with H36K, H98Y, H100R
notes: Fab made by papain digestion of the yeast-produced human IgG1; also called Antibody No. 7 Fab; ADI-79842 Fab

Kd [7]: 1.96 nM | Kd [8]: 8.5 nM
B11: Fab of ADI-79845 (Antibody No. 11) (Fab, V domains shown)
VH: B1 VH with H100A, H102G
VL: B1 VL with H36K, H98Y
notes: Fab made by papain digestion of the yeast-produced human IgG1; also called Antibody No. 11 Fab; ADI-79845 Fab
